Tested on: murine macrophage RAW264.7 cells
Assay: Osteoclastic differentiation of RAW264.7 cells (TRAP stain)
Type: cell-based
Description: Grafts (5×5×1 mm, FlexBone 25% HA-25% TCP) were pre-absorbed with varying amounts of growth factors and cytokines to provide an exogenous supply for remodeling. […] The preferred loading dose of RANKL (10 ng/FlexBone graft) was determined by the osteoclastic differentiation of macrophage RAW264.7, induced by the RANKL released from the graft as indicated by positive TRAP stains (purple) of multinucleated cells on Day 6. […] Finally, the preferred loading dose of rhVEGF165 in stimulating the proliferation of human vascular endothelial cells in culture was determined to be 5 ng/graft.
Materials. The radical inhibitors in the commercial 2-hydroxyethyl methacrylate (HEMA, Aldrich) and ethylene glycol dimethacrylate (EGDMA, Aldrich) were removed via distillation under reduced pressure and by passing through a 4 Å molecular sieve column prior to use, respectively. […] In a typical procedure, 0-5.0 wt % TCH was dissolved in the mixture of freshly distilled monomer HEMA, 2% cross-linker EGDMA and viscous solvent ethylene glycol under bath-sonication, before 25 wt % HA, 25 wt % TCP, and the aqueous radical initiators ammonium persulfate and sodium metasulfite were added and thoroughly mixed (Table I). […] The compressive behavior of FlexBone in fully hydrated state as a function of TCH content was analyzed using a Q800 Dynamic Mechanical Analyzer (DMA, TA Instruments) equipped with a submersion compression fixture. […] An L-square was used to make sure that the sanded top and bottom surfaces were parallel prior to testing, and the final dimensions of each specimen were measured by a digital caliper. […] All stress-strain curves presented are based on the engineering stress and engineering strain recorded, assuming a fixed cross-section of the material defined at the start of the test. […] The release of TCH from FlexBone vs. pHEMA hydrogel in water as a function of time and the initial TCH incorporation was monitored over 1 week at 357.9 nm. […]

B1: rmRANKL: recombinant receptor activator of nuclear factor κB ligand, E. coli expressed (protein, UniProt O35235 139-316, looked up)
Tumor necrosis factor ligand …: FSGAPAMMEGSWLDVAQRGKPEAQPFAHLTINAASIPSGSHKVTLSSWYHDRGWAKISNMTLSNGKLRVNQDGFYYLYANICFRHHETSGSVPTDYLQLMVYVVKTSIKIPSSHNLMKGGSTKNWSGNSEFHFYSINVGGFFKLRAGEEISIQVSNPSLLDPDQDATYFGAFKVQDID
In the case of B1, the osteoclast differentiation (continued supplement of 10-ng every other day, day six) is reported as “formation of TRAP-positive multinucleated osteoclasts”, the preferred loading dose (determined by osteoclastic differentiation of RAW264.7, TRAP stains Day 6) is reported as 10 ng/FlexBone graft and the osteoclast differentiation (single supplement of 10-ng directly to culture) is reported as “not sufficient in inducing the osteoclast differentiation”.

From patent US20100098761A1, “Polymer Compositions For Biomedical And Material Applications” (University of Massachusetts Medical School, priority 2007, published 2010)
